From patent US20250263482A1 (SHIJIAZHUANG YILING PHARMACEUTICAL, published 2025)
Each block holds one binder with its values, some of them ahead of it.

Biological target: T1, human CLDN18.2 expressed on cells (human)
T1 construct: Tight junction membrane protein; also called huCLDN18.2
Assay: flow cytometry (geometric mean) on CLDN18.2-expressing 293T cells, Alexa Fluor 647 anti-human IgG Fc secondary
Method: CLDN18.2-expressing 293T cells and CLDN18.1-expressing 293T cells at a density of 2×10⁶ cells/ml in FACS buffer ([…]) were mixed with a dilution series ([…] in FACS buffer) of the chimeric antibodies, the reference antibody, or a IgG negative control (50 μL) in a 96-well V-bottom plate and incubated for 30 min on ice. After a wash with 200 μL/well FACS buffer, cells were resuspended in 30 μL/well secondary antibody Alexa Fluor® 647 AffiniPure Goat Anti-Human IgG, […] specific (Jackson, Cat. #109-605-098) and incubated for 20 min on ice. After three washes with 200 μL/well FACS buffer, cells were resuspended with 150 μl/well FACS buffer and subjected to FACS using BD LSR II Flow Cytometer (HTS). Geometric mean was used for data analysis and plots were made using Prism GraphPad.

- EC50 (read off the curve): ~0.6 µg/mL
B1: YL-G1-19-02 (antibody, human IgG1, kappa)
heavy: not shown
light: DIVMTQSPSSLTVTAGEKVTMSCKSSQSLLNSGNQKNYLTWYQQRPGQPPKLLIYWASTRESGVPVRFTGSGSGTDFTLTISSVQAEDLAVYYCQNAYIYPLTFGTGTKLELKRTVAAPSVFIFPPSDEQLKSGTASVVCLLNNFYPREAKVQWKVDNALQSGNSQESVTEQDSKDSTYSLSSTLTLSKADYEKHKVYACEVTHQGLSSPVTKSFNRGEC
notes: also called YL-G1-02; YL-G-19-02

- EC50 (read off the curve): ~0.8 µg/mL
B2: YL-G1-19-01 (antibody, human IgG1, kappa, V domains shown)
VH: QVQLQQSGAELVRPGTSVKVSCKASGYAFTNYLIEWVKQRPGQGLEWIGVINPGSGGTNYNEKFKGKATLTADKSSNTAYMQLSSLTSEDSAVYFCARVYYGNSFGYWGQGTLVTVSA
VL: DIVMTQSPSSLTVTAGEKVTMSCKSSQSLLNSGNQKNYLTWYQQKPGQPPKLLIYWASTRESGVPDRFTGSGSGTDFTLTISSVQAEDLAVYYCQNEYFYPFTFGSGTKLEIKR
notes: also called 1st generation chimeric antibody
